In patent US5650301A, “Hirudin HV2 having a SN7LYS substitution, method of making, and method of use” (Transgene S.A., priority 1986, dated 1997):

How the values were obtained:
thrombin [1] = target: T1, thrombin (Homo sapiens, UniProt P00734); experiment: Inhibitory effect of crude yeast culture supernatants on thrombin activity (chromozyme TH); format: biochemical; details: yeast culture supernatants after 48 h, compared with native HV2 (FIG. 2)
Method: 20 ml of culture (YNBG+0.5% casamino acids) at OD660 0.02 were seeded with each strain. After 48 h of agitation at 30° C. the cultures were centrifuged (5000 rpm, 5 min) and the supernatants assayed. A culture of TGY1sp4 pTG881 (plasmid not carrying the coding sequence for HV2) was used as a control.
The activity of the crude supernatants is measured in terms of their inhibitory effect with respect to thrombin activity (proteolytic activity on a synthetic substrate, chromozyme TH--Boehringer Mannheim).

bovine thrombin = target: T2, bovine thrombin (Bos taurus, UniProt P00735); experiment: Specific antithrombin activity, inhibition of proteolytic activity of thrombin on chromozyme; format: biochemical; details: stock solution 1 mg/ml in physiological saline
T2 construct: The specific antithrombin activity (human and bovine thrombin) of the two recombinant hirudins
Method: (§1) a) The specific antithrombin activity (human and bovine thrombin) of the two recombinant hirudins in physiological saline is determined on the basis of the inhibition of the proteolytic activity of thrombin on chromozyme.
(§2) a) For a preparation of stock solution at a concentration of 1 mg/ml, the specific antithrombin activity of the two variants of hirudin with respect to human and bovine thrombins is expressed in Table 1 below: […]

rat and rabbit plasma = experiment: Anticoagulant activity in vitro in plasma, prolongation of the thrombin time; details: higher concentrations, compared with rHV2
Method: (§3) b) The anticoagulant activity of the two hirudins is compared in vitro in rat and rabbit plasma in terms of prolongation of the thrombin time, and the anti-IIa effect is measured chromogenically.

[2] = test system: residual thrombin in the rat and rabbit plasma; experiment: Anti-IIa effect in plasma, residual thrombin by chromogenic substrate; format: biochemical; details: above 60 ATU/ml, compared with rHV2
Method: as §3

[3] = test system: venous thrombosis in rabbits; experiment: Wessler's model in rabbits (thromboplastin as thrombogenic agent); format: in vivo, rabbit
Method: (§4) e) The antithrombotic activity of the two variants of hirudin and of standard heparin is studied in Wessler's rabbit and rat model, with thromboplastin as thrombogenic agent, and in the model of stasis in rabbits (Fareed). The compounds are administered by continuous perfusion in rabbits and by i.v. bolus in rats.
Male New Zealand rabbits weighing 2.5 to 3 kg were used in this study. After anesthesia by intravenous injection of pentobarbital sodium (30 mg/kg), the left carotid was cannulated and the two jugular veins were isolated; two slack ligatures were placed on each of them at a distance of 2.5 cm from one another. The rabbits then received either physiological saline or solutions of hirudin or heparin in continuous perfusion for 30 minutes at a flow rate of 2.5 ml/hour. Two minutes before the end of the perfusion, arterial blood samples were drawn in order to determine the plasma levels of the anti-coagulants. One minute before the end of the perfusion, human thromboplastin (Manchester Comparative Reagents Ltd), standardized according to M. Buchanan's procedure, was injected at a dose of 600 ug/kg during exactly 30 seconds into the aorta via the carotid. Thirty seconds later the perfusion was stopped and blood stasis was produced by tightening the ligatures on the two venous segments for 15 minutes. […]

[4] = test system: thrombosis by blood stasis in rabbits; experiment: Model of thrombosis by blood stasis in rabbits; format: in vivo; details: RABBIT i.v. perfusion
Method: as §4
Male New Zealand rabbits weighing 2.5 to 3 kg were used in this study. After intravenous anesthesia with pentobarbital sodium (30 mg/kg), the left carotid was cannulated and the two jugular veins were isolated; two slack ligatures were placed on each of them, at a distance of 2.5 cm from one another. The rabbits then received either physiological saline or solutions of hirudin or heparin in continuous perfusion for 30 minutes, at a flow rate of 2.5 ml/hour. Two minutes before the end of perfusion, arterial blood samples were drawn in order to determine the plasma levels of the anticoagulants. At the same time as the perfusion was stopped, stasis was established by tightening the four ligatures (first the proximal and then the distal). The stasis was maintained for 2 hours, the jugulars were then opened and the thrombi extracted, rinsed in physiological saline and weighed after blotting with filter paper.

[5] = test system: venous thrombosis in rats; experiment: Wessler's model in rats; format: in vivo; details: RAT i.v. bolus, -5 min 40 s before stasis
Method: as §4
Male (CD-COBS) Sprague-Dawley rats weighing approximately 300 g were used. […] Two flexible ligatures were positioned 0.7 cm apart.
The test products, diluted in physiological saline, were injected in an i.v. bolus at 1 ml/kg, 5 min 40 s or 1 min (heparin) before the production of venous stasis. Forty seconds before this stasis, a thrombogenic agent (rabbit thromboplastin, E. Dade) was injected at a dose of 25 mg/ml/kg into the vein of the penis in the space of 30 seconds, measured very exactly. Ten seconds after the end of the injection, stasis was established by tightening the two ligatures, first the proximal and then the distal. The stasis was maintained for 10 minutes, and the thrombus was then removed, immersed in a 0.38% strength citrate solution, dried with general-purpose absorbent paper and weighed on the following day after drying for one hour at […].

hemorrhage in rabbits = details: rabbit, in vivo
bleeding time in rats = details: rat, in vivo
thrombin [6] = target: T1, thrombin; experiment: Kinetics of inhibition of human thrombin by purified hirudin variants (chromozyme PL); format: biochemical; design: The specific antithrombin activity (human and bovine thrombin) of the two recombinant hirudins
From the text: To study the kinetics of inhibition of thrombin by these variants, the theory of high affinity inhibitors, as described in J. W. WILLIAMS and J. F. MORRISON Methods in Enzymology 63 pp. 437-467, 1979, is used, since hirudin is a reversible inhibitor of thrombin.
The variants of hirudin used are purified to 95% and the Sigma pure human thrombin has a percentage activity, measured by titration of the active site, which is above 92%. The concentration of human thrombin is the same for all the measurements, namely 5.5×10^-9 M. The medium is an 0.05M sodium PIPES buffer, pH 7.9, 0.18M KCl and 0.1% PEG at 37° C. The thrombin substrate is Boehringer chromozyme PL. A preincubation time of 2 minutes is observed for the thrombin and hirudin, and the reaction is then initiated with the substrate.
The following table summarizes the values determined experimentally for the quantity of hirudin required for a 95% inhibition of the same quantity of human thrombin (5.5×10^-9 M).

thrombin [7] = target: T1, thrombin; experiment: Specific antithrombin activity, inhibition of proteolytic activity of thrombin on chromozyme; format: biochemical; design: The specific antithrombin activity (human and bovine thrombin) of the two recombinant hirudins
Method: as §1, §2

B1: ILE THR TYR THRASP CYS THR GLU SER GLY GLN ASN LEU CYS LEU CYS GLU GLY SER ASN VAL CYS GLY LYS GLY ASN LYS CYS ILE LEU GLY SER ASN GLY LYS GLY ASN GLN CYS VAL THR GLY GLU GLY THR PRO LYS PRO GLU SER … (protein)
chain: ITYTDCTESGQNLCLCEGSNVCGKGNKCILGSNGKGNQCVTGEGTPKPESHNNGDFEEIPEEYLQ
modifications: printed: ILE THR TYR THRASP CYS THR GLU SER GLY GLN ASN LEU CYS LEU CYS GLU GLY SER ASN VAL CYS GLY LYS GLY ASN LYS CYS ILE LEU GLY SER ASN GLY LYS GLY ASN GLN CYS VAL THR GLY GLU GLY THR PRO LYS PRO GLU SER HIS ASN ASN GLY ASP PHE GLU GLU ILE PRO GLU GLU TYR LEU GLN
notes: recombinant hirudin HV2 variant in which the Asn^47 is replaced by a Lys, produced in yeast
inhibitory effect of crude supernatants with respect to thrombin activity (thrombin [1]): at least equal to that of native HV2
specific antithrombin activity for bovine thrombin (bovine thrombin): 19,200 ATU/mg
anticoagulant activity determined in terms of the thrombin time (rat and rabbit plasma): markedly superior
further neutralizing the traces of residual thrombin [2]: more effective
Antithrombotic effects, WESSLER ([3]; RABBIT i.v. perfusion): 20 µg/kg/h
antithrombotic activity ([3]; continuous perfusion in rabbits, compared with rHV2 and heparin): superior to those of rHV2 and heparin
Antithrombotic effects, STASIS [4]: 47 µg/kg/h
Antithrombotic effects, WESSLER [5]: 160 µg/kg
risk of hemorrhage (hemorrhage in rabbits): less than those in animals treated with standard heparin
prolongation of the bleeding time (bleeding time in rats): less than those in animals treated with standard heparin
Quantity for attaining 95% inhibition of thrombin (thrombin [6]; human thrombin 5.5×10^-9 M, PIPES pH 7.9, 37° C., chromozyme PL, 2 min preincubation): 7.6 10^-9 M
fold less hirudin than HV2 required for inhibiting the same quantity of human thrombin (thrombin [6]; relative to hirudin HV2): approximately 4 fold
specific antithrombin activity, results expected for human thrombin (thrombin [7]; expected values): 16,000 ATU/mg
specific antithrombin activity for human thrombin (thrombin [7]; stock solution 1 mg/ml in physiological saline): 19,000 ATU/mg
specific antithrombin activity (thrombin [7]; summary value of the text, identical for the human and bovine thrombins): ~19,000 ATU/mg
